± gives the standard deviation of the averaged measurements.
Test system: ATP
Assay: switch fluorescence ratio, 500 uM ATP over buffer (Cy3 cluster intensity, sum of 5 cycles each) (fold (ratio)); higher = stronger signal-on switching upon ATP binding; sequences stand for … in TCGTCGGCAGCGTCAGATGTGTATAAGAGACAGTTTTTTTTTTTTTTTTTTTTTTTTT…TC
Settings: aptamer strand: ATP DNA aptamer (quencher-CACCTGGGGGAGTATTGCGGAGGAAGG + anchor), 100 nM annealed; ATP concentration: 500 uM
Summary of the method: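 The quencher-labelled ATP aptamer, at 100 nM, was annealed to Cy3-labelled switching-strand clusters on a modified Illumina MiSeq flow-cell. The clusters were imaged in selection buffer, then after 15 min with 500 uM ATP at 22 °C, and this buffer/ATP cycle ran five times with NaOH stripping and re-annealing between runs. Per-cluster fluorescence ratios, summed target-cycle over summed buffer-cycle Cy3 intensity, were averaged per switch-domain sequence. Clusters outside 100-1000 RFU were excluded.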
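Further: ATP exposure 15 min at 22 °C before imaging.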

Row | Sequence | switch fluorescence ratio
1 | TTCAAATGCT | 0.998 ± 0.013
2 | GGGGGGTAAG | 1 ± 0.021
3 | AGTAGTTGAA | 0.988 ± 0.044
4 | TTGACAAGAT | 1.28 ± 0.39
5 | TAAAACCCGC | 1.05 ± 0.032
6 | CCGGCGCGTT | 1.96 ± 1.3
7 | GAGGTGCAGG | 0.9932 ± 0.008
8 | CTAAGGTCTT | 1.07 ± 0.11
9 | GCTGTTTGAT | 0.959 ± 0.04
10 | GTTGCGAAGG | 0.983 ± 0.02
11 | CCGGGGAAGG | 1.04 ± 0.0092
12 | GCTTGGGCAG | 1.02 ± 0.045
13 | GGGGTACTGG | 1.01 ± 0.016
14 | ATACTTATTG | 0.99646 ± 0.0008
15 | TTTTCCTGAG | 1.04 ± 0.035
16 | TTTGGTAGTT | 0.987 ± 0.015
17 | TGGAACAGGG | 1.03 ± 0.036
18 | TATTAAGTAG | 1.03 ± 0.038
19 | GCGGATGTGC | 1.036 ± 0.0078
20 | GGGTATTTGG | 0.987 ± 0.042
21 | TCTGTGTTT | 0.9348 ± 0.0089
22 | GTTAGGTTGC | 1.01 ± 0.046
23 | GGCTAACAAG | 1.01 ± 0.02

Row | Sequence | switch fluorescence ratio
24 | TTTAGGCTGC | 1.01 ± 0.021
25 | CAATATGTGT | 0.986 ± 0.036
26 | AAGGATATCT | 0.988 ± 0.022
27 | GAACGGGGGT | 1 ± 0.015
28 | GGTTATGGGG | 0.985 ± 0.027
29 | GACACTGCCC | 1.13 ± 0.048
30 | GATTGGGGCG | 1.02 ± 0.015
31 | ATGTTCTGGG | 1.04 ± 0.029
32 | CCGCGTCGCT | 1.317 ± 0.0055
33 | ATTTCTATCC | 1.09 ± 0.12
34 | CGGGGTATAG | 1.37 ± 0.52
35 | AAAAAAACCT | 1.28 ± 0.39
36 | CTTCTTTGTG | 0.996 ± 0.018
37 | GGGAATACGT | 1.03 ± 0.029
38 | TTAGGGTTTC | 0.978 ± 0.013
39 | GAATCTTGCG | 0.95976 ± 0.00094
40 | TTGTTGGTTA | 0.9925 ± 0.0028
41 | TCGCGATCAG | 1.12 ± 0.042
42 | AGGGCGTCTA | 1.015 ± 0.003
43 | GACTTGTAGG | 0.9844 ± 0.0049
44 | AAGCGGTTCG | 0.98939 ± 0.0009
45 | GTGCGTCTTT | 1.01 ± 0.041
46 | GAAACGCTTT | 1.03 ± 0.057

Row | Sequence | switch fluorescence ratio
47 | ATTGGTGCGT | 1.0357 ± 0.0007
48 | TAACGGCGGT | 0.978 ± 0.021
49 | CCGGGCGTA | 1.15 ± 0.083
50 | ATCTGGGGTG | 1.02 ± 0.03
51 | CTTCGTGATG | 1.1044 ± 0.00079
52 | TTACCGGTAG | 0.993 ± 0.059
53 | CATATGTTTT | 1 ± 0.035
54 | GAGGGCATGA | 0.993 ± 0.074
55 | ACCTCCCGGG | 1.13 ± 0.17
56 | AAAATGTGTT | 1.01 ± 0.018
57 | GCCAAATTTT | 0.955 ± 0.035
58 | TTTATGGCTG | 0.987 ± 0.076
59 | GCATGGGGTT | 0.998 ± 0.031
60 | ATTATGGTAT | 1.02 ± 0.04
61 | CCGTTTTCGG | 0.952 ± 0.053
62 | TTGAGATTCG | 1.01 ± 0.031
63 | CGGGGAAAAA | 1.06 ± 0.094
64 | GCAGGACGGG | 1.4 ± 0.64
65 | TAATTCAATG | 0.997 ± 0.066
66 | AAGTACGACT | 1.1 ± 0.016
67 | TATGTCCGTA | 1 ± 0.013
68 | AGCGGCAACG | 1.08 ± 0.098
69 | GGTTCTACTC | 1.02 ± 0.013

Row | Sequence | switch fluorescence ratio
70 | TCGGTATATG | 0.991 ± 0.011
71 | CGCTATTATA | 1.09 ± 0.052
72 | AGATAAAACG | 1.02 ± 0.076
73 | GGTATGTGTT | 0.987 ± 0.04
74 | TATTAATGTT | 0.997 ± 0.019
75 | GGGTAATGTG | 0.982 ± 0.029
76 | AGGGGCCCGC | 0.98 ± 0.018
77 | AGACGGGTGC | 1.08 ± 0.074
78 | AACTAGGATA | 1.01 ± 0.02
79 | TATCGTTGTT | 1 ± 0.021
80 | ATTGTGCAGG | 0.998 ± 0.0025
81 | TTTTCCTAGA | 1.004 ± 0.0057
82 | ATAGTATGGT | 0.9976 ± 0.0089
83 | AGAGTATTAG | 1 ± 0.013
84 | AGCTAACGAC | 1.83 ± 0.067
85 | GGGGGTAAGT | 1.01 ± 0.02
86 | CGAAAAAAGA | 1.05 ± 0.12
87 | TAATTAGCGC | 1.03 ± 0.016
88 | CCCGGGGCTA | 1.08 ± 0.036
89 | CTGTAAAGAG | 0.99 ± 0.035
90 | TACCAGCATT | 1.1 ± 0.051
91 | GCCGGACTTT | 1.01 ± 0.012
92 | GGCTGGGGTA | 0.9884 ± 0.0032

Row | Sequence | switch fluorescence ratio
93 | CGTGGGTAAG | 1.02 ± 0.039
94 | CGGGTTATAA | 1.04 ± 0.022
95 | TCGGGCAGGT | 1.06 ± 0.064
96 | TGAGGTAAGG | 0.997 ± 0.033
97 | ATGGGAGAAA | 1.01 ± 0.0045
98 | CGGCTTGGGG | 1 ± 0.015
99 | CGATCCTTTT | 1.05 ± 0.029
100 | GGGTGCACGG | 1.01 ± 0.021
101 | AAAACAGTT | 1.05 ± 0.02
102 | TATAAAAAAT | 1 ± 0.028
103 | CGGCGATTTA | 1.003 ± 0.009
104 | GCGAATCGCT | 0.9675 ± 0.0058
105 | TAAGTTTTTA | 1.03 ± 0.023
106 | AAGGCCGCGG | 0.997 ± 0.05
107 | GGTTAGTAGG | 0.986 ± 0.021
108 | AAATAACTAG | 0.99 ± 0.015
109 | CGTTGGTTCA | 1 ± 0.023
110 | ACATCAATTC | 1.1 ± 0.014
111 | AGAGGTCTGT | 0.986 ± 0.0056
112 | TTGAAATCTT | 1.78 ± 1
113 | GTGTCAACTA | 0.987 ± 0.016
114 | GGCATATGTA | 0.9829 ± 0.0076
115 | AGTCAAAAAG | 0.985 ± 0.051

Row | Sequence | switch fluorescence ratio
116 | GGGGGGGTTT | 1.01 ± 0.074
117 | CGGTCTGTTC | 0.994 ± 0.052
118 | GCTGCAGGGC | 1.37 ± 0.44
119 | ATTAGGGTTG | 0.9823 ± 0.0019
120 | ATACATTGTC | 0.978 ± 0.074
121 | CAGGGACGGA | 1.02 ± 0.017
122 | GGGGTAGTTC | 1.01 ± 0.028
123 | AGCGGATTTG | 0.966 ± 0.014
124 | TAGTTATCGT | 1.01 ± 0.027
125 | TGGACGTTGA | 0.994 ± 0.033
126 | AAATTATTTC | 0.989 ± 0.033
127 | GGATAGGGCG | 0.946 ± 0.1
128 | TTAATTGGGA | 0.9897 ± 0.0028
129 | GCATTTTCTG | 1.02 ± 0.026
130 | TGGATGGCC | 1.02 ± 0.032
131 | CCAGCTGTAT | 1.04 ± 0.0024
132 | AGGCTAGGAG | 0.994 ± 0.053
133 | TTCGGGTTTT | 1 ± 0.033
134 | GGTTATCGAT | 0.999 ± 0.0014
135 | GATGTCTGCT | 1.019 ± 0.0098
136 | GCGCGGGAAC | 1.46 ± 0.17
137 | GGGAAGTGAG | 1.013 ± 0.006
138 | TTTTAGGTCA | 0.9901 ± 0.0063

Row | Sequence | switch fluorescence ratio
139 | AAAGTCTCGT | 0.972 ± 0.018
140 | TTGCGGGGGG | 1.03 ± 0.032
141 | CTTCTTGTGG | 0.9925 ± 0.009
142 | TCGTGGAGGT | 0.985 ± 0.036
143 | ATTCTCATTG | 0.982 ± 0.038
144 | ATAACGTTCG | 1.06 ± 0.052
145 | GGGGCTAGTG | 0.977 ± 0.046
146 | CTGGAGCGCT | 1.22 ± 0.054
147 | ACATGAGTCT | 1.02 ± 0.02
148 | CGTAGGGTGT | 1 ± 0.022
149 | ACCGGTGTAC | 1.77 ± 0.12
150 | ACCTCGGTCG | 0.983 ± 0.019
151 | GAGAGGTGTT | 1.06 ± 0.039
152 | TTCATGGGGC | 1.05 ± 0.086
153 | CAGCGGGGGA | 1.012 ± 0.0014
154 | ACGGGTTTGT | 0.9774 ± 0.0036
155 | GCCGCTTGCA | 0.9973 ± 0.0053
156 | CTCAATGTAT | 0.989 ± 0.032

— the supplement of paper PMC10126150
